B1: CoV2-YD-6 (antibody, V domains shown)
VH: QVQLVESGGGSVQVGGSLRLSCAASGMTFSSATMAWYRQAPGKQREWVAGIGSGGRTSYASSMKGRFTISRDNAKNTVYLQMNSLKPEDTAVYYCYTALLSGGDYWGQGTQVTVS
B2: CoV2-YD-9 (antibody, V domains shown)
VH: QVQLVESGGGLVQAGGSVRLSCAASGITFSNYASQWFRQTPGKAREFVAAISGGGTTSYAASVKGRFTLSRDNAKNTVYLQMNDLKFEDTAVYYCHTADLYSDYWGQGTQVTVS
B3: CoV2-YD-8 (antibody, V domains shown)
VH: QVQLVESGGGLVQPGGSLSLSCAASGSMNSMNPMGWYRQAPGKEREVVARISSGGSTTYTDSVKGRFTISRDSAKNTVYLQMNSLKPDDTAVYYCYIIDDYGVQYWGKGTQVTVS
B4: CoV2-YD-3 (antibody, V domains shown)
VH: QVQLVESGGGLVQAGGSLRLSCVASTTWFSNFGMGWYRQAPGKQRELVAGITYDGTTKYVDSVKGRSTIARDNAKNTVSLQMNSVKPGDTAIYYCNTYPSQLWNWGQGTQVTVS
B5: CoV2-YD-7 (antibody, V domains shown)
VH: QVQLVESGGGLVQPGGSLRLSCTASVHPFSIYDMGWYRQAPGKQRVLVASISSDGTTDYADSVKGRFTISRDNAKNTVYLQMDSLKPEDTAVYYCNLAYVTWGQGTQVTVS
B6: CoV2-YD-2 (antibody, V domains shown)
VH: QVQLVESGGGLVQPGGSLRLSCSISGFSFGYSAIGWFRQAPGLEREWVSTISSNGDDTVYADSVKGRFTISRDNAKNTVYLQMDSLKPEDTAVYYCARSFRWSRLPRDYDSWGQGTQVTVS
B7: CoV2-YD-33 (antibody, V domains shown)
VH: DVQLVESGGGLVQAGGSLRLSCVASGSTDSNYVMGWHRQTSGKQSEWVASIESGGEKKIVDSVKGRFTISRDNAKNTVYLQMNSLKPEDTAVYYCFYERLAWDTSTYWGQGTQVTVS
B8: CoV2-YD-34 (antibody, V domains shown)
VH: DVQLVESGGGLVQAGGSLRLSCVASGSTDSNYVMGWYRQTSGKQREWVASINSGGETRSADSEKGRFTISGDNAKNTVYLQMNSLKPEDTGVYYCFYERLAWDTSTYWGQGTQVTVS

Biological target: SARS-CoV-2 Spike S1 (Wuhan; S1 or RBD) (Severe acute respiratory syndrome …, UniProt P0DTC2)
Assay: SPR

In order of rising Kd:
1. B2  0.0164 nM
2. B4  0.0409 nM
3. B3  0.126 nM
4. B8  0.541 nM
5. B1  2.91 nM
6. B5  3.24 nM
7. B7  3.54 nM
8. B6  3.68 nM

Source: article PMC9884143 (2023)
